# Data published in US20260201008A1, “SECRETIN-DERIVED GLP1R SELECTIVE AGONISTS” (GUBRA A/S, priority 2023, published 2026).
# Numbered stars: 1 amine (or outer) side, 2 acyl side, 3 side chain; on linkers, the order of the positions; unused ones are H or OH. Square brackets hold non-standard residues; d marks the D form. Side chains are listed from the residue outwards. Ends that are not written are not given here. * marks the point of attachment. C20 diacid = O=C(O)CCCCCCCCCCCCCCCCCCC(=O)*; γGlu = O=C(O)[C@H](CCC(=O)[*:2])N[*:1]; AEEA = NCCOCCOCC(=O)O; Aib = CC(C)(N)C(=O)O
# B1: SEQ ID NO: 150 (peptide)
# peptide: H[Aib]EGTFTSDVSYLKEEA[Aib]EQRFLEHLV-NH2
# modifications: not fully specified (residue 14)
# B2: SEQ ID NO: 2 (peptide)
# peptide: H[Aib]EGTFTSDVSRLK([AEEA-AEEA-γGlu-C20 diacid])EFAAAQRFLEHLV-NH2
# B3: SEQ ID NO: 173 (peptide)
# peptide: H[Aib]EGTFTSDVSFLK([AEEA-AEEA-γGlu-C20 diacid])EEA[Aib]LQRFLEHLV-NH2
# B4: SEQ ID NO: 171 (peptide)
# peptide: H[Aib]HGTFTSDVSYLK([AEEA-AEEA-γGlu-C20 diacid])EEA[Aib]LQRFLEHLV-NH2
# B5: SEQ ID NO: 142 (peptide)
# peptide: HGEGTFTSDVSYLKEEA[Aib]LQRFLEHLV-NH2
# modifications: not fully specified (residue 14); also: K14 lipidated with C20DA[γE][OEG][OEG]- or C18DA[γE][OEG][OEG]-
# B6: SEQ ID NO: 169 (peptide)
# peptide: H[Aib]EGTFTSDVSYLK([AEEA-AEEA-γGlu-C20 diacid])EEA[Aib]LQRFLEWLV-NH2
# B7: SEQ ID NO: 167 (peptide)
# peptide: H[Aib]EGTFTSDVSGLK([AEEA-AEEA-γGlu-C20 diacid])EEA[Aib]LQRFLEHLV-NH2
# B8: SEQ ID NO: 154 (peptide)
# peptide: H[Aib]EGTFTSDVSYLKEEA[Aib]GQRFLEHLV-NH2
# modifications: not fully specified (residue 14)
# B9: SEQ ID NO: 159 (peptide)
# peptide: H[Aib]YGTFTSDVSYLKEEA[Aib]LQRFLEHLV-NH2
# modifications: not fully specified (residue 14)
# B10: SEQ ID NO: 152 (peptide)
# peptide: H[Aib]EGTFTSDVSYLKEEA[Aib][Aib]QRFLEHLV-NH2
# modifications: not fully specified (residue 14)
# B11: SEQ ID NO: 175 (peptide)
# peptide: H[Aib]IGTFTSDVSYLK([AEEA-AEEA-γGlu-C20 diacid])EEA[Aib]LQRFLEHLV-NH2
# B12: SEQ ID NO: 160 (peptide)
# peptide: H[Aib]WGTFTSDVSYLKEEA[Aib]LQRFLEHLV-NH2
# modifications: not fully specified (residue 14)
# B13: SEQ ID NO: 156 (peptide)
# peptide: H[Aib]QGTFTSDVSYLKEEA[Aib]LQRFLEHLV-NH2
# modifications: not fully specified (residue 14)
# B14: SEQ ID NO: 163 (peptide)
# peptide: H[Aib]EGTFTSDVS[Aib]LKEEA[Aib]LQRFLEHLV-NH2
# modifications: not fully specified (residue 14)
# B15: SEQ ID NO: 149 (peptide)
# peptide: H[Aib]EGTFTSDVSLLKEEA[Aib]LQRFLEHLV-NH2
# modifications: not fully specified (residue 14)
# B16: SEQ ID NO: 143 (peptide)
# peptide: H[Aib]EGTFTSDVSYLYEEA[Aib]LQRFLEKLV-NH2
# modifications: not fully specified (residue 25)
# B17: SEQ ID NO: 170 (peptide)
# peptide: H[Aib]LGTFTSDVSYLK([AEEA-AEEA-γGlu-C20 diacid])EEA[Aib]LQRFLEHLV-NH2
# B18: SEQ ID NO: 174 (peptide)
# peptide: H[Aib]EGTFTSDVSWLK([AEEA-AEEA-γGlu-C20 diacid])EEA[Aib]LQRFLEHLV-NH2
# B19: SEQ ID NO: 164 (peptide)
# peptide: H[Aib]EGTFTSDVSYLHEEA[Aib]LQRFLEKLV-NH2
# modifications: not fully specified (residue 25)
# B20: SEQ ID NO: 172 (peptide)
# peptide: H[Aib]EGTFTSDVSILK([AEEA-AEEA-γGlu-C20 diacid])EEA[Aib]LQRFLEHLV-NH2
# B21: SEQ ID NO: 17 (peptide)
# peptide: H[Aib]EGTFTSDVSRLK([AEEA-AEEA-γGlu-C20 diacid])EEAASQRFLEHLV-NH2
# B22: SEQ ID NO: 146 (peptide)
# peptide: H[Aib]EGTFTSDVSYLKEEA[Aib]AQRFLEHLV-NH2
# modifications: not fully specified (residue 14)
# B23: SEQ ID NO: 151 (peptide)
# peptide: H[Aib]EGTFTSDVSYLKEEA[Aib]LQRFLEELV-NH2
# modifications: not fully specified (residue 14)
# B24: SEQ ID NO: 158 (peptide)
# peptide: H[Aib]EGTFTSDVSYL[Aib]EEA[Aib]LQRFLEKLV-NH2
# modifications: not fully specified (residue 25)
# B25: SEQ ID NO: 153 (peptide)
# peptide: H[Aib]EGTFTSDVSDLKEEA[Aib]LQRFLEHLV-NH2
# modifications: not fully specified (residue 14)
# B26: SEQ ID NO: 147 (peptide)
# peptide: H[Aib]EGTFTSDVSYLKEEA[Aib]LQRFLEKLV-NH2
# modifications: not fully specified (residue 14)
# B27: SEQ ID NO: 166 (peptide)
# peptide: HAEGTFTSDVSYLK([AEEA-AEEA-γGlu-C20 diacid])EEA[Aib]LQRFLEHLV-NH2
# B28: SEQ ID NO: 162 (peptide)
# peptide: H[Aib]EGTFTSDVSYLKEEA[Aib]TQRFLEHLV-NH2
# modifications: not fully specified (residue 14)
# B29: SEQ ID NO: 176 (peptide)
# peptide: H[Aib]EGTFTSDVSYLFEEA[Aib]LQRFLEK([AEEA-AEEA-γGlu-C20 diacid])LV-NH2
# B30: SEQ ID NO: 157 (peptide)
# peptide: H[Aib]EGTFTSDVSYLKEEA[Aib]QQRFLEHLV-NH2
# modifications: not fully specified (residue 14)
# B31: SEQ ID NO: 161 (peptide)
# peptide: H[Aib]EGTFTSDVSYLKEEA[Aib]VQRFLEHLV-NH2
# modifications: not fully specified (residue 14)
# B32: SEQ ID NO: 165 (peptide)
# peptide: H[Aib]EGTFTSDVSTLK([AEEA-AEEA-γGlu-C20 diacid])EEA[Aib]LQRFLEHLV-NH2
# B33: SEQ ID NO: 145 (peptide)
# peptide: H[Aib]EGTFTSDVSHLKEEA[Aib]LQRFLEHLV-NH2
# modifications: not fully specified (residue 14); also: K14 lipidated with C20DA[γE][OEG][OEG]- or C18DA[γE][OEG][OEG]-
# B34: SEQ ID NO: 144 (peptide)
# peptide: H[Aib]EGTFTSDVSYLKEEA[Aib]LQRFLEYLV-NH2
# modifications: not fully specified (residue 14); also: K14 lipidated with C20DA[γE][OEG][OEG]- or C18DA[γE][OEG][OEG]-
# B35: SEQ ID NO: 148 (peptide)
# peptide: H[Aib]EGTFTSDVSALKEEA[Aib]LQRFLEHLV-NH2
# modifications: not fully specified (residue 14)
# B36: SEQ ID NO: 16 (peptide)
# peptide: H[Aib]EGTFTSDVSTLKE[Aib]AAEQRFLEHLV-NH2
# modifications: not fully specified (residue 14)
# B37: SEQ ID NO: 155 (peptide)
# peptide: H[Aib]VGTFTSDVSYLKEEA[Aib]LQRFLEHLV-NH2
# modifications: not fully specified (residue 14)
# B38: SEQ ID NO: 18 (peptide)
# peptide: H[Aib]EGTFTSDVSELK([AEEA-AEEA-γGlu-C20 diacid])E[Aib]AAEQRFLEHLV-NH2
# B39: SEQ ID NO: 15 (peptide)
# peptide: H[Aib]EGTFTSDVSVLKE[Aib]AAAQRFLEHLV-NH2
# modifications: not fully specified (residue 14)
# Molecular target: human GLP-1 receptor (hGLP1R) (human, UniProt P43220 24-463)
# Assay: cell-based or functional assay
row,Binder,pEC50 hGLPR1
1,B1,11.3 -log M
2,B2,10.1 -log M
3,B3,10.9 -log M
4,B4,9.8 -log M
5,B5,10.9 -log M
6,B6,10.4 -log M
7,B7,11.2 -log M
8,B8,10.8 -log M
9,B9,9.1 -log M
10,B10,10.9 -log M
11,B11,10.5 -log M
12,B12,9.1 -log M
13,B13,10.8 -log M
14,B14,10.9 -log M
15,B15,10.9 -log M
16,B16,11 -log M
17,B17,10.6 -log M
18,B18,10.9 -log M
19,B19,10.7 -log M
20,B20,10.8 -log M

row,Binder,pEC50 hGLPR1
1,B21,10.6 -log M
2,B22,11.6 -log M
3,B23,10.6 -log M
4,B24,10.4 -log M
5,B25,10.7 -log M
6,B26,11.3 -log M
7,B27,11.1 -log M
8,B28,12.2 -log M
9,B29,10.5 -log M
10,B30,11.6 -log M
11,B31,11.4 -log M
12,B32,11.2 -log M
13,B33,11.1 -log M
14,B34,10.8 -log M
15,B35,10.8 -log M
16,B36,10.4 -log M
17,B37,10.9 -log M
18,B38,10.5 -log M
19,B39,10.1 -log M

# Molecular target: human secretin receptor (hSCTR) (human, UniProt P47872 23-440)
# Sequence (P47872 23-440): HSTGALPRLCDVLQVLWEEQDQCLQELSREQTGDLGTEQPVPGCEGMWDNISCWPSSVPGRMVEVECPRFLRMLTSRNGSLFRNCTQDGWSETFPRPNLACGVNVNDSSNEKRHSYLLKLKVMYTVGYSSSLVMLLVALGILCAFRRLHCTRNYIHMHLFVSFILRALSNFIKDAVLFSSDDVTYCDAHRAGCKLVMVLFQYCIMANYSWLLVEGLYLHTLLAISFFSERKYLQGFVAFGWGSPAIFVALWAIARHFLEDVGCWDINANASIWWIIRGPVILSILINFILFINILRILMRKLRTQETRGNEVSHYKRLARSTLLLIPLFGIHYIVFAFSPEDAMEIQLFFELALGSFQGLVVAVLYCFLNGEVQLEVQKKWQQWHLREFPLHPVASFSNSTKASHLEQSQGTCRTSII
# Assay: cell-based or functional assay
row,Binder,pEC50 hSCTR
1,B1,5.5 -log M
2,B2,6.3 -log M
3,B3,6.8 -log M
4,B4,4.5 -log M
5,B5,4.7 -log M
6,B6,6.3 -log M
7,B7,7 -log M
8,B8,5.4 -log M
9,B9,4.6 -log M
10,B10,5.4 -log M
11,B11,5.1 -log M
12,B12,4.6 -log M
13,B13,4.4 -log M
14,B14,7.4 -log M
15,B15,7.5 -log M
16,B16,6.1 -log M
17,B17,4.6 -log M
18,B18,7 -log M
19,B19,6.6 -log M
20,B20,7.7 -log M

row,Binder,pEC50 hSCTR
1,B21,6.6 -log M
2,B22,5.7 -log M
3,B23,6.9 -log M
4,B24,5.8 -log M
5,B25,6.5 -log M
6,B26,7.2 -log M
7,B27,6.5 -log M
8,B28,6.9 -log M
9,B29,5.5 -log M
10,B30,6.5 -log M
11,B31,6.8 -log M
12,B32,8 -log M
13,B33,7.2 -log M
14,B34,6.6 -log M
15,B35,7.2 -log M
16,B36,6.9 -log M
17,B37,4.6 -log M
18,B38,6.3 -log M
19,B39,6.5 -log M
